One molecule from article PMC3080401, “Oligomerization of the E. coli Core RNA Polymerase: Formation of (α2ββ'ω)2–DNA Complexes and Regulation of the Oligomerization by Auxiliary Subunits” can be followed below.

Series [1] deals with RNA polymerase core enzyme (alpha2 beta beta' omega);RapA (Escherichia coli;Escherichia coli, UniProt P0A7Z4;P0A8V2;P0A8T7;P0A800;P60240 1-329;1-1342;1-1407;1-91;1-968, |). The series is described as follows: EMSA; 160 nM core, RapA titration; shifts to single-copy core-RapA-DNA complex; EMSA buffer D (1x): 20 mM Tris-acetate, 10 mM Mg acetate, 50 mM K acetate, 1 mM DTT, pH 7.8; native PAGE in 0.5x TBE running buffer; 37 C for the tac and slyD template reactions, otherwise temperature not stated. As to conditions: protein: native;recombinant; tags: ;; chain copies: 2;1;1;1;1; label: 5'-32P. A general note: Mobility shift assays separate free from complexed probe on a gel.

Series [2] has as its target RNA polymerase core enzyme (alpha2 beta beta' omega);NusA (Escherichia coli;Escherichia coli, UniProt P0A7Z4;P0A8V2;P0A8T7;P0A800;P0AFF6 1-329;1-1342;1-1407;1-91;1-495, |). Nature of the series: EMSA; 160 nM core, NusA titration; tandem core-DNA complex dissociated to single copy; EMSA buffer D (1x): 20 mM Tris-acetate, 10 mM Mg acetate, 50 mM K acetate, 1 mM DTT, pH 7.8; native PAGE in 0.5x TBE running buffer; 37 C for the tac and slyD template reactions, otherwise temperature not stated. As to conditions: protein: native;recombinant; tags: ;; chain copies: 2;1;1;1;1; label: 5'-32P.

For the molecule CGCGCCAACAGCGACATCAAATTTGTCGCC (mixed) [short DNA probe (Fig 2E)], the binding result in series [1] and in series [2] was “binds” in each case.
